Data from article PMC6549176, “SAGA DUBm-mediated surveillance regulates prompt export of stress-inducible transcripts for proteostasis” (Nature Communications, 2019).

Target: T1, recombinant Sgf73p (MBP-Sgf73p) (S. cerevisiae, UniProt P53165 1-657)
T1 construct: Sgf73p of the SAGA DUBm, S. cerevisiae; source: recombinant
T1 sequence (looked up): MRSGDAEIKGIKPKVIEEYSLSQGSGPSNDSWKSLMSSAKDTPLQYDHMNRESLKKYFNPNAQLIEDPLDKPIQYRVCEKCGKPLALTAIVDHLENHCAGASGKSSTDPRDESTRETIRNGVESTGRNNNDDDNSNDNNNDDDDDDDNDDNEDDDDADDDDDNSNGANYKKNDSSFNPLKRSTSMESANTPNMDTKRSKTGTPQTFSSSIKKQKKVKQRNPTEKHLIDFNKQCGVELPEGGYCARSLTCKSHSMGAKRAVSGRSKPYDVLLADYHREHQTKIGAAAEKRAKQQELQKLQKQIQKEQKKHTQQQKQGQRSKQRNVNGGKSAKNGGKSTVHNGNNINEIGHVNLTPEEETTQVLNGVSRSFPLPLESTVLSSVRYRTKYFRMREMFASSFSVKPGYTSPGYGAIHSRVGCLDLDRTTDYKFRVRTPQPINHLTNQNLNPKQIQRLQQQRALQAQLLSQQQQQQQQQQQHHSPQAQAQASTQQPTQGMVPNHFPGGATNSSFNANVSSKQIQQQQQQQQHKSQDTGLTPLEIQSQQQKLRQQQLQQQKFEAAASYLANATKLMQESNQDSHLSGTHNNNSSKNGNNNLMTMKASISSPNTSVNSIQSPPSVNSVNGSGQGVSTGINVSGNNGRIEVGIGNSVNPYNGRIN
Assay: pull-down; GST-tagged Yra1p or its subfragments as bait (1 µg) on beads, 200 ng target protein; 50 mM HEPES-KOH pH 7.5, 150 mM NaCl, 10% glycerol, 0.1% NP40, 0.5 mM DTT, 1 mM EDTA; 4 °C, 2 h; Western blotting
Settings: both partners purified

binding result: binds
B1: GST-tagged Yra1p (natural protein, S. cerevisiae, UniProt Q12159 1-226, looked up)
chain: MSANLDKSLDEIIGSNKAGSNRARVGGTRGNGPRRVGKQVGSQRRSLPNRRGPIRKNTRAPPNAVARVAKLLDTTREVKVNVEGLPRDIKQDAVREFFASQVGGVQRVLLSYNERGQSTGMANITFKNGELARRAVERFNGSPIDGGRSRLRLNLIVDPNQRPVKSLADRIKAMPQKGGNAPRPVKRGPNRKAAMAKSQNKPKREKPAKKSLEDLDKEMADYFEKK
notes: Yra1p, essential mRNA export factor, S. cerevisiae; also called GST-Yra1p
